# Read-outs that look alike come from different tables or passages of the source.
# B1: Fab4_(CrystalKappa) (Crystal Kappa form of Fab4) (Fab, V domains shown)
# VH: QVQLVESGGGVVQPGRSLRLSCAASGFTFTSYGMSWVRQAPGKGLEWVAGISYDASDTEYADSVKGRFTISRDNSKNTLYLQMNSLRAEDTAVYYCARSPDYIIDYGFDYWGRGTLVTVSS
# VL: AIQMTQSPSSLSASVGDRVTITCRASQGISSDLAWYQQKPGKAPKLLIYDASSLQSGVPSRFSGSGSGTDFTLTISSLQPEDFATYYCQQYWWYPFTFGQGTKVEIK
# B2: Fab4 (wild-type; antigen-binding portion of an antagonistic anti-IL-12Rβ1 antibody) (Fab, V domains shown)
# VH: B1 VH
# VL: B1 VL
# B3: mIL-12 (mIL-12a-AviTag-His6 and untagged mIL-12b), analyte in BLI (complex, mouse)
# chain 1: RVIPVSGPARCLSQSRNLLKTTDDMVKTAREKLKHYSCTAEDIDHEDITRDQTSTLKTCLPLELHKNESCLATRETSSTTRGSCLPPQKTSLMMTLCLGSIYEDLKMYQTEFQAINAALQNHNHQQIILDKGMLVAIDELMQSLNHNGETLRQKPPVGEADPYRVKMKLCILLHAFSTRVVTINRVMGYLSSA
# chain 2: MWELEKDVYVVEVDWTPDAPGETVNLTCDTPEEDDITWTSDQRHGVIGSGKTLTITVKEFLDAGQYTCHKGGETLSHSHLLLHKKENGIWSTEILKNFKNKTFLKCEAPNYSGRFTCSWLVQRNMDLKFNIKSSSSSPDSRAVTCGMASLSAEKVTLDQRDYEKYSVSCQEDVTCPTAEETLPIELALEARQQNKYENYSTSFFIRDIIKPDPPKNLQMKPLKNSQVEVSWEYPDSWSTPHSYFSLKFFVRIQRKKEKMKETEEGCNQKGAFLVEKTSTEVQCKGGNVCVQAQDRYYNSSCSKWACVPCRVRS
# Assays:
# [1] = biological target: T1, hIL-12Rβ1_(D3-D5) (domains 3 to 5 of human IL-12 receptor β1) (human, UniProt P42701); assay: crystal structure
# [2] = biological target: T1, hIL-12Rβ1_(D3-D5) (domains 3 to 5 of …); assay: crystal structure; remark: listed apart in the source
# [3] = biological target: T2, biotinylated mIL-12Rβ2_(D1-D6)-Casp3-AviTag-His6 (mouse, UniProt P97378 24-637, biotin on the AviTag (in vitro biotinylation with BirA)); assay: BLI
# T2 sequence (looked up): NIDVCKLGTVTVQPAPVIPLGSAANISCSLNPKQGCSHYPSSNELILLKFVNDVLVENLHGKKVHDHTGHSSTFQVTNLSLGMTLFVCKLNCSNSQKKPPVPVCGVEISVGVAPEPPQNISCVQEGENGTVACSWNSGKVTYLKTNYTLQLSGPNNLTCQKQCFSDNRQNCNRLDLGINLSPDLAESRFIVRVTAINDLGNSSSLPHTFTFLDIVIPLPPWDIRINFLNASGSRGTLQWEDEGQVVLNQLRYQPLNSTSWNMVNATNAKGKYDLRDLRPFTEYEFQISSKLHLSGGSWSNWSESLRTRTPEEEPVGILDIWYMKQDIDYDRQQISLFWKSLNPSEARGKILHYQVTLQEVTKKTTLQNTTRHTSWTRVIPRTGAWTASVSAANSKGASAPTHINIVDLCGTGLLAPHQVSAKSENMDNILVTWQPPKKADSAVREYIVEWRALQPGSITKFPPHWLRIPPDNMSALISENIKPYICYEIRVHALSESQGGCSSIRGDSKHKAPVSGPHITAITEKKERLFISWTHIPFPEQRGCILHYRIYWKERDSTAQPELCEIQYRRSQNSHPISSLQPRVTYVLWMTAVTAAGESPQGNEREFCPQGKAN
binder,measurement,setting,value
B1,binding result,[1],binds
B2,binding result,[2],binds
B3,binding result,[3],binds

# From paper doi:10.1101/2023.03.13.532366 (bioRxiv, 2023)
